Laboratory results reported in the supplement of paper PMC11246515.
± gives the standard deviation of the averaged measurements.

Assay: total protein half-life in vivo (active degradation + dilution); higher = more stable protein
[1] = E. coli NCM3722 delta-clpP delta-lon delta-hslV, growth: N-lim chemostat, doubling time 6 h
[2] = E. coli NCM3722 delta-smpB, growth: N-lim chemostat, doubling time 6 h
[3] = wild type E. coli NCM3722, growth: P-lim chemostat, doubling time 12 h
[4] = E. coli NCM3722 delta-lon, growth: N-lim chemostat, doubling time 6 h
[5] = wild type E. coli NCM3722, growth: C-lim chemostat, doubling time 3 h
[6] = wild type E. coli NCM3722, growth: C-lim chemostat, doubling time 6 h
[7] = wild type E. coli NCM3722, growth: C-lim chemostat, doubling time 12 h
[8] = E. coli NCM3722 delta-clpP, growth: N-lim chemostat, doubling time 6 h
[9] = E. coli NCM3722 delta-hslV, growth: N-lim chemostat, doubling time 6 h
[10] = wild type E. coli NCM3722, growth: N-lim chemostat, doubling time 6 h
[11] = wild type E. coli NCM3722, growth: N-lim chemostat, doubling time 12 h
[12] = wild type E. coli NCM3722, growth: P-lim chemostat, doubling time 6 h

For “MNNREKEILAILRRNPLIQQNEIADMLQISRSRVAAHIMDLMRKGRIKGKGYILTEQEYCVVVGTINMDIRGMADIRYPQSASHPGTIHCSAGGVGRNIAHNLALLGRDVHLLSVIGDDFYGEMLLEETRRAGVNVSGCVRLHGQSTSTYLAIANRDDQTVLAINDTHLLEQLTPQLLNGSRDLLRHAGVVLADCNLTAEALEWVFTLADEIPVFVDTVSEFKAGKIKHWLAHIHTLKPTLPELEILWGQAITSDADRNTAVNALHQQGVQQLFVYLPDESVYCSEKDGEQFLLTAPAHTTVDSFGADDGFMAGLVYSFLEGYSFRDSARFAVACAAISRASGSLNNPTLSADNALSLVPMV”, the “total protein half-life in vivo” value [1] was 5.83 ± 0.3 h.

For “MNNSEGLKSFQQSLADLPQWVSERLLQQINQLTNYEPVIGIMGKTGVGKSSLCNALFAGDISPVSDVAACTREPLRFRLQVGDRYITLMDLPGVGESGARDTEYAALYREQLPRLDLVLWLIKADDRALTVDEHFYHQVIGEVYRHKVLFVISQSDKAEPTSGGGQLSTAQKQNISRKICLLHELFQPVHPVCAVSVRLQWGLKVMAERMIKCLPREATSPVVSQLHPSFRTTVVREQARSDFGETVGAVLDSISAFPLIPAPVRAVIQAVRTTVVSVARAVWDFFF”, the “total protein half-life in vivo” value [2] was 3.51 h and the “total protein half-life in vivo” value [3] was 6.63 h.

With “MNPAVDNEFQQWLSQINQVCGNFTGRLLTERYTGVLDTHFAKGLKLSTVTTSGVNLSRTWQEVKGSDDAWFYTVFQLSGQAIMEQDERQVQIGAGDITLLDASRPCSLYWQESSKQISLLLPRTLLEQYFPHQKPICAERLDADLPMVQLSHRLLQESMNNPALSETESEAALQAMVCLLRPVLHQRESVQPRRERQFQKVVTLIDDNIREEILRPEWIAGETGMSVRSLYRMFADKGLVVAQYIRNRRLDFCADAIRHAADDEKLAGIGFHWGFSDQSHFSTVFKQRFGMTPGEYRRKFR” the “total protein half-life in vivo” value [1] was 6.1 ± 0.083 h, the “total protein half-life in vivo” value [4] was 1.98 h and the “total protein half-life in vivo” value [5] was 0.364 ± 0.09 h. For the same sequence, the “total protein half-life in vivo” value [6] was 0.661 ± 0.089 h and the “total protein half-life in vivo” value [7] was 0.65 h.

With “MNPLKAGDIAPKFSLPDQDGEQVNLTDFQGQRVLVYFYPKAMTPGCTVQACGLRDNMDELKKAGVDVLGISTDKPEKLSRFAEKELLNFTLLSDEDHQVCEQFGVWGEKSFMGKTYDGIHRISFLIDADGKIEHVFDDFKTSNHHDVVLNWLKEHA [P0AE52]” the “total protein half-life in vivo” value [1] was 5.42 ± 0.21 h, the “total protein half-life in vivo” value [8] was 5.26 ± 0.76 h and the “total protein half-life in vivo” value [9] was 4.92 ± 0.074 h. The “total protein half-life in vivo” value [4] was 6.45 ± 1.5 h, the “total protein half-life in vivo” value [2] was 4.25 ± 0.079 h and the “total protein half-life in vivo” value [5] was 2.85 ± 0.64 h. The “total protein half-life in vivo” value [6] was 5.36 ± 0.065 h, the “total protein half-life in vivo” value [7] was 7.64 ± 0.72 h and the “total protein half-life in vivo” value [10] was 4.08 ± 0.36 h. The “total protein half-life in vivo” value [11] was 7.49 ± 0.41 h, the “total protein half-life in vivo” value [12] was 4.38 ± 0.081 h and the “total protein half-life in vivo” value [3] was 11 ± 0.55 h.

In the case of “MNPTRYARICEMLARRQPDLTVCMEQVHKPHNVSAIIRTADAVGVHEVHAVWPGSRMRTMASAAAGSNSWVQVKTHRTIGDAVAHLKGQGMQILATHLSDNAVDFREIDYTRPTCILMGQEKTGITQEALALADQDIIIPMIGMVQSLNVSVASALILYEAQRQRQNAGMYLRENSMLPEAEQQRLLFEGGYPVLAKVAKRKGLPYPHVNQQGEIEADADWWATMQAAG [P0AGJ2]”, the “total protein half-life in vivo” value [8] is reported as 5.55 h, the “total protein half-life in vivo” value [9] is reported as 5.14 ± 0.28 h and the “total protein half-life in vivo” value [4] is reported as 5.86 h. The “total protein half-life in vivo” value [2] was 4.84 ± 0.18 h, the “total protein half-life in vivo” value [5] was 2.85 ± 0.62 h and the “total protein half-life in vivo” value [6] was 5.7 ± 0.66 h. The “total protein half-life in vivo” value [7] was 10.7 ± 1.5 h, the “total protein half-life in vivo” value [10] was 5.5 ± 0.66 h and the “total protein half-life in vivo” value [11] was 10 ± 0.54 h. For the same sequence, the “total protein half-life in vivo” value [12] was 5.8 ± 0.23 h and the “total protein half-life in vivo” value [3] was 12.5 ± 0.089 h.
